B1: Cell adhesion molecule CEACAM1 (Homo sapiens), P13688 (parent)
chain: MGHLSAPLHRVRVPWQGLLLTASLLTFWNPPTTAQLTTESMPFNVAEGKEVLLLVHNLPQQLFGYSWYKGERVDGNRQIVGYAIGTQQATPGPANSGRETIYPNASLLIQNVTQNDTGFYTLQVIKSDLVNEEATGQFHVYPELPKPSISSNNSNPVEDKDAVAFTCEPETQDTTYLWWINNQSLPVSPRLQLSNGNRTLTLLSVTRNDTGPYECEIQNPVSANRSDPVTLNVTYGPDTPTISPSDTYYRPGANLSLSCYAASNPPAQYSWLINGTFQQSTQELFIPNITVNNSGSYTCHANNSVTGCNRTTVKTIIVTELSPVVAKPQIKASKTTVTGDKDSVNLTCSTNDTGISIRWFFKNQSLPSSERMKLSQGNTTLSINPVKREDAGTYWCEVFNPISKNQSDPIMLNVNYNALPQENGLSPGAIAGIVIGVVALVALIAVALACFLHFGKTGRASDQRDLTEHKPSVSNHTQDHSNDPPNKMNEVTYSTLNFEAQQPTQPTSASPSLTATEIIYSEVKKQ

Variants of: B1
Conditions: with havr2_human HAVCR2, Q8TDQ0
For Q78L, the “effect of a mutation on the interaction” value was “decreasing interaction strength”.
In the case of G81A, the “effect of a mutation on the interaction” value is reported as “disrupting interaction strength”.
With N76A the “effect of a mutation on the interaction” value was “decreasing interaction strength”.
With Q123H the “effect of a mutation on the interaction” value was “decreasing interaction strength”.
